Source: IntAct's records for PubMed 11801603

B1: Baculoviral IAP repeat-containing protein 7 (Homo sapiens), Q96CA5 (parent)
chain: MGPKDSAKCLHRGPQPSHWAAGDGPTQERCGPRSLGSPVLGLDTCRAWDHVDGQILGQLRPLTEEEEEEGAGATLSRGPAFPGMGSEELRLASFYDWPLTAEVPPELLAAAGFFHTGHQDKVRCFFCYGGLQSWKRGDDPWTEHAKWFPSCQFLLRSKGRDFVHSVQETHSQLLGSWDPWEEPEDAAPVAPSVPASGYPELPTPRREVQSESAQEPGGVSPAEAQRAWWVLEPPGARDVEAQLRRLQEERTCKVCLDRAVSIVFVPCGHLVCAECAPGLQLCPICRAPVRSRVRTFLS
partner: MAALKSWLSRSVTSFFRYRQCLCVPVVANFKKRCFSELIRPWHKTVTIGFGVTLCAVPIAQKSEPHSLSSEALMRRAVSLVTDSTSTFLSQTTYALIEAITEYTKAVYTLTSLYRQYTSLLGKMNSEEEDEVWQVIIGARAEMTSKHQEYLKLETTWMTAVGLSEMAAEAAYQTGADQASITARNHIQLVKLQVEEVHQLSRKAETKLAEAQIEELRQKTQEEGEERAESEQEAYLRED
B2: Baculoviral IAP repeat-containing protein 7 (Homo sapiens), Q96CA5 (parent)
chain: B1 chain

Variants of: B1
Settings: with dbloh_human DIABLO

Variant	effect of a mutation on the interaction
MGPKDSAKCLHRGPQPSHWAAGDGPTQERCGPRSLGSPVLGLDTCRAWDHVDGQILGQLRPLTEEEEEEGAGATLSRGPAFPGMGSEELRLASFYDWPLTAEVPPELLAAAGFFHTGHQDKVRCFFCYGGLQSWKRGADPWTEHAKWFPSCQFLLRSKGRDFVHSVQETHSQLLGSWDPWEEPEDAAPVAPSVPASGYPELPTPRREVQSESAQEPGGVSPAEAQRAWWVLEPPGARDVEAQLRRLQEERTCKVCLDRAVSIVFVPCGHLVCAECAPGLQLCPICRAPVRSRVRTFLS [D138A]	decreasing interaction
MGPKDSAKCLHRGPQPSHWAAGDGPTQERCGPRSLGSPVLGLDTCRAWDHVDGQILGQLRPLTEEEEEEGAGATLSRGPAFPGMGSEELRLASFYDWPLTAEVPPELLAAAGFFHTGHQAKVRCFFCYGGLQSWKRGDDPWTEHAKWFPSCQFLLRSKGRDFVHSVQETHSQLLGSWDPWEEPEDAAPVAPSVPASGYPELPTPRREVQSESAQEPGGVSPAEAQRAWWVLEPPGARDVEAQLRRLQEERTCKVCLDRAVSIVFVPCGHLVCAECAPGLQLCPICRAPVRSRVRTFLS [D120A]	decreasing interaction

Variants of: B2
Settings: with casp9_human CASP9, P55211
Sequence of casp9_human CASP9, P55211 (P55211 whole entry): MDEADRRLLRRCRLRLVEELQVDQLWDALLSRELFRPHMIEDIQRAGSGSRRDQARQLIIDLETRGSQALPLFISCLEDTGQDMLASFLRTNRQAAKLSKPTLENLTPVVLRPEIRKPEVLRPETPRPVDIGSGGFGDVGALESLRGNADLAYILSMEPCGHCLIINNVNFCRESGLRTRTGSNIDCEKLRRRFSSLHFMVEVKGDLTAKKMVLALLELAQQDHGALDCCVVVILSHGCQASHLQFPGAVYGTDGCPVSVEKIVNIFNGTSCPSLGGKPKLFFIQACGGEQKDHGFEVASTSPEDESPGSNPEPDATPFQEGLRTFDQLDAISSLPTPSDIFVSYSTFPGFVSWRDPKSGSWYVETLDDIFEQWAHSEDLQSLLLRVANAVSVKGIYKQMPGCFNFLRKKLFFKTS

Variant	effect of a mutation on the interaction
MGPKDSAKCLHRGPQPSHWAAGDGPTQERCGPRSLGSPVLGLDTCRAWDHVDGQILGQLRPLTEEEEEEGAGATLSRGPAFPGMGSEELRLASFYDWPLTAEVPPELLAAAGFFHTGHQDKVRCFFCYGGLQSWKRGADPWTEHAKWFPSCQFLLRSKGRDFVHSVQETHSQLLGSWDPWEEPEDAAPVAPSVPASGYPELPTPRREVQSESAQEPGGVSPAEAQRAWWVLEPPGARDVEAQLRRLQEERTCKVCLDRAVSIVFVPCGHLVCAECAPGLQLCPICRAPVRSRVRTFLS [D138A]	decreasing interaction
